# Results as given in patent publication US7799901B2, “Modulators of the function of FAS receptors and other proteins” (Yeda Research and Development Co. Ltd., priority 1995, dated 2010).
# T1: GST-Fas-IC fusion protein with a replacement at the lpr^eg mutation site (I225A) (Mus musculus, UniProt P25446, I246A)
# T1 construct: GST fusion with Fas-IC containing a Ile to Ala replacement mutation at position 225; made in house; host or cells: E. coli
# T1 sequence (P25446 187-327 I246A): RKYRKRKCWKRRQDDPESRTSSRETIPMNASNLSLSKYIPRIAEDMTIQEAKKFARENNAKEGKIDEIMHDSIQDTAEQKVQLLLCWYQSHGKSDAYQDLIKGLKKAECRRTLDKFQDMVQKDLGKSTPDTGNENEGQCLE
# Columns and labels:
# HeLa cells = assay: Cytotoxicity triggered by induced expression of MORT-1 in HeLa cells; assay type: cell-based, human; settings: tetracycline-controlled transient expression; neutral red uptake or secreted placental alkaline phosphatase
# Experimental: MORT-1, Fas-IC, p55-IC and luciferase cDNAs were inserted into a tetracycline-controlled expression vector and transfected to HtTA-1 cells (a HeLa cell line) (Gossen and Bujard, 1992) together with the secreted placental alkaline phosphatase cDNA, placed under control of SV40 promoter (the pSBC-2 vector, Dirks et al, 1993). Cell death was assessed 40 hours after transfection, either by the neutral-red uptake assay (Wallach, 1984) or, for assessing specifically the death in those cells that express the transfected cDNAs, by determining the amounts of placental alkaline phosphatase (Berger et al, 1988) secreted to the growth medium at the last 5 hours of incubation.
# High expression of p55-IC results in triggering of a cytocidal effect (Boldin et al, 1995). The expression of Fas-IC in HeLa cells also has such an effect, though to a lower extent, which could be detected only with the use of a sensitive assay. The ligand independent triggering of cytocidal effects in cells transfected with MORT-1, as well as human p55-IC and FAS-IC, was thus analyzed. The effect of transient expression of MORT-1, human Fas-IC, human p55-IC, or luciferase that served as a control, on the viability of HeLa cells was assessed using a tetracycline-controlled expression vector. […]
# [1] = biological target: T1, GST-Fas-IC fusion protein with a replacement at the lpr^eg mutation site (I225A); assay: In vitro binding to GST-Fas-IC with I225A replacement; settings: [35S]-labeled protein from HeLa extracts; SDS-PAGE, autoradiography
# Experimental: Glutathione S-transferase (GST) fusions with the wild type or a mutated Fas-IC were produced and adsorbed to glutathione-agarose beads; see Boldin et al, 1995; Ausubel et al, 1994; Frangioni and Neel, 1993). Binding of metabolically-labeled FLAG-MORT-1 fusion protein to GST-Fas-IC was assessed by incubating the beads for 2 h at 4° C. with extracts of HeLa cells, metabolically labeled with [^35S]methionine (60 μCi/ml), that express FLAG-MORT-1. The extracts were prepared in a buffer containing 50 mM Tris-HCl, pH 7.5, 150 mM NaCl, 0.1% NP-40; 1 mM dithioteitol, 1 mM EDTA, 1 mM phenylmethylsulfonyl fluoride, 20 μg/ml Aprotonin, […] Leupeptin, 10 mM-sodium fluoride and 0.1 mM sodium vanadate (1 ml per 5×10^5 cells).
# Expression of MORT-1 molecules fused at their N terminus with the. FLAG octapeptide (FLAG-MORT-1) yielded in HeLa cells proteins of four distinct sizes—about […], 28, 32, and 34 kD. […] Thus, the in vitro interaction was evaluated by assessing, by autoradiography following SDS-PAGE, the binding of [35] metabolically labeled MORT-1, produced in transfected HeLa cells as a fusion with the FLAG octapeptide (FLAG-MORT-1), to GST, GST fusion with the human or mouse Fas-IC (GST-huFas-IC, GST-mFas-IC) or to GST fusion with Fas-IC containing a Ile to Ala replacement mutation at position 225.
molecule,measurement,setting,value
"MORT-1: Mediator of Receptor-induced Toxicity; protein binding the intracellular domain of FAS-R, SEQ ID NO:2 (protein) VNQAPECRFGGGILGPLGKRRDLARASEPRTEGARRAGPQPRPLADPAMDPFLVLLHSVSSSLSSSELTELKFLCLGRVVKRKLERVQSGLDLFSMLLEQNDLEPGHTELLRELLASLRRHDLLRRVDDFEAGAAAGAAPGEEDLCAAFNVICDNVGKDWRRLARQLKVSDTKIDSIEDRYPRNLTERVRESLRIWKNTEKENATVAHLVGALRSCQMNLVADLVQEVQQARDLQNRSGAMSPMSWNSDASTSEAS",cell death on expression in HeLa cells,HeLa cells,significant cell death
same,in vitro binding to GST-Fas-IC (I225A),[1],did not bind
